Experimental data reported in article PMC4559334.

Columns and labels:
Assay in all cases: EMSA
Details in all cases: not stated in the material held
[1] = system: C-Ala (Escherichia coli)
[2] = system: AlaRS full-length (Escherichia coli)
[3] = system: ED-C-Ala (Escherichia coli)

tRNAAla, 3'-labelled was tested, and the Kd [1] was 800 nM, the Kd [2] was 3000 nM and the Kd [3] was 2200 nM.
